Values of other authors in PMC5934386.
Read-outs that look alike come from different tables or passages of the source.

How the values were obtained:
[1] = target: Ubiquitin (Homo sapiens) (UniProt P0CG47)
[2] = target: Ubiquitin (Homo sapiens) (UniProt P0CG47); assay: NMR

Sequence of yeast E2-25K (P21734 whole entry): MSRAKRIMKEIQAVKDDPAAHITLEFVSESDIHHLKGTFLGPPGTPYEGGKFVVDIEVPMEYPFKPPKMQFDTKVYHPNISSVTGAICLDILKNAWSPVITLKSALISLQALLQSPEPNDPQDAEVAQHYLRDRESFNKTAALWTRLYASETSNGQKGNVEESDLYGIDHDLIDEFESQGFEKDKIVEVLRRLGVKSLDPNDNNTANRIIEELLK
Sequence of E2-25K UBA (P61086 157-200): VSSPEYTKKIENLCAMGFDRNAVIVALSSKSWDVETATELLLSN

| Kd [1] | Kd [2] | Substance |
| --- | --- | --- |
| 1200 µM | – | E2-25K UBA (from UniProt P61086) |
| – | 228 µM | yeast E2-25K (from UniProt P21734) |
